# Source: patent publication WO2017015008A1 (dated 2017)
# B1: anti-HER3 Antibody A (antibody, human IgG1, kappa, V domains shown)
# VH: EVQLVESGGGLVKPGGSLRLSCAASGFSLDTYTMIWVRQAPGKGLEWVGIIYVTYNTYYANWAKGRFTISRDDSKNTLYLQMNSLKTEDTAVYYCTRWGDQNGLDIWGQGTLVTVSS
# VL: DIQMTQSPSSLSASVGDRVTITCQSSQRVYGNKNLAWYQQKPGKAPKLLIYFARTLASGVPSRFSGSGSGTDFTLTISSLQPEDFATYYCQGTYYGTNWYVGFGGGTKVEIKR
# notes: IgG type; human IgG1 Fc with C-terminal lysine deletion is stated only in embodiment language
# Legend:
# [1] = biological target: T1, human HER3 ECD as shown in SEQ ID NO: 23 (human, UniProt P21860 20-643); experiment: SPR (Biacore), antibody captured on Protein A, soluble HER3-ECD as analyte
# T1 construct: also called soluble HER3-ECD
# Rhesus mature HER3-ECD [2] = biological target: T2, Rhesus mature HER3-ECD (rhesus monkey, UniProt H9ERZ8 20-643); experiment: as above
# T2 construct: extracellular domain; Bought protein; also called Rhesus HER3-ECD; cynomolgus monkey HER3-ECD
# [3] = biological target: T3, mouse mature HER3 ECD as shown in SEQ ID NO: 24 (mouse, UniProt Q61526 20-641); experiment: as above
# T3 construct: also called mouse HER3 ECD; mouse soluble HER3-ECD
# [4] = biological target: T1, human HER3 ECD as shown in SEQ ID NO: 23; experiment: SPR (Biacore), antibody captured on Protein A, soluble HER3-ECD as analyte, 37°C, 1:1 model
# Rhesus mature HER3-ECD [5] = biological target: T2, Rhesus mature HER3-ECD; experiment: as above
# [6] = biological target: T3, mouse mature HER3 ECD as shown in SEQ …; experiment: as above
# T2 sequence (H9ERZ8 entry or part of it): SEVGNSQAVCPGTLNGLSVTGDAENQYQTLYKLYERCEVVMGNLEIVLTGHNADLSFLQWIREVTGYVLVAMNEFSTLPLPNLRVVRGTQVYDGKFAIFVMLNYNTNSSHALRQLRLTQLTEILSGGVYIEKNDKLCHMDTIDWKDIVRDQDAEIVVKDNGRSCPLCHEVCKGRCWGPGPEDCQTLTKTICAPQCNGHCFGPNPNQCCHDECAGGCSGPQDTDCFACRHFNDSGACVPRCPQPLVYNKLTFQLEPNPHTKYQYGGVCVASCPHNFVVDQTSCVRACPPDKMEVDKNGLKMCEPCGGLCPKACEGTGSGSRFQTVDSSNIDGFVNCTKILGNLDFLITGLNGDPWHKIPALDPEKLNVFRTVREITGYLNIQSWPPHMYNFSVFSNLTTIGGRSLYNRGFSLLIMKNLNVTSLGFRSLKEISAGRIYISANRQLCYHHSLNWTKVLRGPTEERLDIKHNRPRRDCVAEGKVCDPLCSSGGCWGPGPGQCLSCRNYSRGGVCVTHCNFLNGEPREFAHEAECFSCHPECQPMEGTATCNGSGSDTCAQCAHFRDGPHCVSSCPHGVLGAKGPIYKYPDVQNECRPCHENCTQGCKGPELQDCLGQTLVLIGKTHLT
# T3 sequence (Q61526 20-641 limits assumed): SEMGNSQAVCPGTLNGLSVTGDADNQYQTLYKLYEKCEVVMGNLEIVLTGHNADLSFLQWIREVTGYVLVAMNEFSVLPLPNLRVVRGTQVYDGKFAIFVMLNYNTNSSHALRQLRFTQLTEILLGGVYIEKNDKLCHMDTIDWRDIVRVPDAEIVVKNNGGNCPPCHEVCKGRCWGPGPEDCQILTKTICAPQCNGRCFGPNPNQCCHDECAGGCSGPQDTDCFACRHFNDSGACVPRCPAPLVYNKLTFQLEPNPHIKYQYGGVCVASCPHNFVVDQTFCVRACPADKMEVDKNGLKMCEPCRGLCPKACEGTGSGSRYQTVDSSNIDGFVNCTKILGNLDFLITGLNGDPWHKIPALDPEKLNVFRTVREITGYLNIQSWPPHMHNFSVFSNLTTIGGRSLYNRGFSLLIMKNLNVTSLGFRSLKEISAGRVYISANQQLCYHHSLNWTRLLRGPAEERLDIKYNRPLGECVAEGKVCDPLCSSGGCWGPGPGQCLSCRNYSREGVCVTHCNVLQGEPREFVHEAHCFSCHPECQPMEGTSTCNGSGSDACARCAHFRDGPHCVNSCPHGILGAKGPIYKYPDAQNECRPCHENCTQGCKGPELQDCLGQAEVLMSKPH
# T1 sequence (P21860 other isoform, or with tags, fused parts or gaps, form in doubt): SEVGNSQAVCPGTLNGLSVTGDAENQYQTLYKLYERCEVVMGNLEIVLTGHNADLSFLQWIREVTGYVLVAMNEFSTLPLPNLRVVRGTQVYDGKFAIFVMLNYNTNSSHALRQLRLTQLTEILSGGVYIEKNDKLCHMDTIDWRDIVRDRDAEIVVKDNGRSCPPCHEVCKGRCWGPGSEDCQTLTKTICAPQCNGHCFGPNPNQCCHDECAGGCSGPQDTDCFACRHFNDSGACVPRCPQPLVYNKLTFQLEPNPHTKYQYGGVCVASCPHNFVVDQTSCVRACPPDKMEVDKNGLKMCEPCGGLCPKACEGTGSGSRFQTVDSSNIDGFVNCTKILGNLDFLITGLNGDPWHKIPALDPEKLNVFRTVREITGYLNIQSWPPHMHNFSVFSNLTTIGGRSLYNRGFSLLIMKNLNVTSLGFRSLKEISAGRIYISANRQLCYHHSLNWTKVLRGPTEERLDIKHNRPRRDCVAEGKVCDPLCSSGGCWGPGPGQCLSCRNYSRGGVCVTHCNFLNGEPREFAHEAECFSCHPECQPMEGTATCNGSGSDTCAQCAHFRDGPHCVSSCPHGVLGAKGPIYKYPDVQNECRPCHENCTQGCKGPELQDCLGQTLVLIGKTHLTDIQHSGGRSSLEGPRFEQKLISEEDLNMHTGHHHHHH
binder,measurement,setting,value
B1,binding stoichiometry,[1],~2 moles of ligand per mole of antibody
same,binding stoichiometry,Rhesus mature HER3-ECD [2],~2 moles of ligand per mole of antibody
same,binding stoichiometry,[3],~2 moles of ligand per mole of antibody
same,Kd,[4],1.6 nM
same,Kd,Rhesus mature HER3-ECD [5],2.1 nM
same,Kd,[6],3 nM
